Measured values published in patent publication US20240383996A1.

Key:
[1] = target: Human OX40 expressed on transfected Jurkat or CHO cells (human) (UniProt P43489); test: flow cytometry, whole cell binding to human OX40-expressing Jurkat cells, Geo MFI
[2] = target: Human CTLA4 expressed on transfected CHO or Jurkat cells (human) (UniProt P16410); test: flow cytometry, whole cell binding to human CTLA4-expressing Jurkat cells, Geo MFI
Sequence of Human CTLA4 expressed on transfected CHO or Jurkat cells (human) (P16410 36-222 limits assumed): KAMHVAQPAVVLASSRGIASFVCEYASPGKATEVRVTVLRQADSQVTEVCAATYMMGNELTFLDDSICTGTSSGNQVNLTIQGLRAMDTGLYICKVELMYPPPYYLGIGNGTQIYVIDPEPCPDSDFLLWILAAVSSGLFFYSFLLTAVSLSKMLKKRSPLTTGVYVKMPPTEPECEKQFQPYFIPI

Sequence of Human OX40 expressed on transfected Jurkat or CHO cells (human) (P43489 29-277 limits assumed): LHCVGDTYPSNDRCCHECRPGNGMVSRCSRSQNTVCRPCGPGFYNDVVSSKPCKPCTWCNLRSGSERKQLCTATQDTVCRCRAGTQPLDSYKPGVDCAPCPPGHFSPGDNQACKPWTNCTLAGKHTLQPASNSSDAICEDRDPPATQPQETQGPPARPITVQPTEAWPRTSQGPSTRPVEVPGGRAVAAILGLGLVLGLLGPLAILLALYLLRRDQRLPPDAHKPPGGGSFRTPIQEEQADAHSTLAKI

Substance “ATOR-1015 analog (reference anti-OX40/CTLA4 bispecific antibody synthesized in-house)” has an EC50 [1] of 10.3 nM and an EC50 [2] of 37.4 nM.
